From patent US20150376286A1 (Amgen, published 2015)

Assays:
[1] = molecular target: T1, human adrenomedullin receptor 1 (hCRLR + hRAMP2) (human, UniProt O60895 43-175); experiment: immunohistochemistry, HEK cells expressing recombinant human adrenomedullin receptor 1 (CRLR+RAMP2), staining intensity (visual score); the text says no staining was observed
T1 construct: whole, on cells; also called hAM1; AM1
Description: (§1) 2-4×10⁶ cells were injected per colla plug (Integra LifeSciences Co., Plainsboro, N.J.). Colla plugs were embedded in OCT medium (Sakura Finetek Inc., Torrance, Calif.), frozen at −20° C. and cut into 20 μm sections using a cryostat. Sections were fixed with 4% paraformaldehyde for 1 hour at room temperature (RT) and subsequently washed in phosphate-buffered saline (PBS). Endogenous peroxidase was blocked with 3% H₂O₂/PBS for 15 min and sections were incubated in blocking solution (PBS with 3% normal goat serum (Vector Labs, Burlingame, Calif.) and 0.3% triton X-100) for 1 hour. […] Sections were cleared with xylene and cover slipped with Permount (Fisher Chemicals, Fair Lawn, N.J.). Immunoreactivity was analyzed using a Nikon E-800 microscope and associated software (Nikon, Melville, N.Y.).

[2] = molecular target: T2, human adrenomedullin receptor 2 (hCRLR + hRAMP3) (human, UniProt O60896 24-148); experiment: immunohistochemistry, CHO cells expressing recombinant human adrenomedullin receptor 2 (CRLR+RAMP3), staining intensity (visual score); the text says no staining was observed
T2 construct: whole, on cells; CHO cell line bought from EuroScreen; also called hAM2; AM2
T2 sequence (O60896 24-148): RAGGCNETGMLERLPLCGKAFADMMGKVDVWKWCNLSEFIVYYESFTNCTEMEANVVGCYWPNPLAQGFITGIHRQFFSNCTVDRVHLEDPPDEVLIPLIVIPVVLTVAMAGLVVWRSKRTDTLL
Description: as §1

[3] = molecular target: T3, human CGRP receptor (CRLR + RAMP1) (human, UniProt Q16602 23-461; O60894 27-148); experiment: immunohistochemistry, CGRP/CHO cells, staining intensity (visual score)
T3 construct: also called hCGRP R; huCGRP R
Description: as §1

[4] = molecular target: T4, human amylin AMY1 receptor (hCTR + hRAMP1) (human, UniProt P30988 25-474); experiment: immunohistochemistry, MCF-7 cells endogenously expressing amylin receptors, staining intensity (visual score); the text says no staining was observed
T4 construct: whole, on cells; Endogenous in MCF-7 cells (ATCC HTB-22); also called hAmylin 1; hAMY1
T4 sequence (P30988 25-474): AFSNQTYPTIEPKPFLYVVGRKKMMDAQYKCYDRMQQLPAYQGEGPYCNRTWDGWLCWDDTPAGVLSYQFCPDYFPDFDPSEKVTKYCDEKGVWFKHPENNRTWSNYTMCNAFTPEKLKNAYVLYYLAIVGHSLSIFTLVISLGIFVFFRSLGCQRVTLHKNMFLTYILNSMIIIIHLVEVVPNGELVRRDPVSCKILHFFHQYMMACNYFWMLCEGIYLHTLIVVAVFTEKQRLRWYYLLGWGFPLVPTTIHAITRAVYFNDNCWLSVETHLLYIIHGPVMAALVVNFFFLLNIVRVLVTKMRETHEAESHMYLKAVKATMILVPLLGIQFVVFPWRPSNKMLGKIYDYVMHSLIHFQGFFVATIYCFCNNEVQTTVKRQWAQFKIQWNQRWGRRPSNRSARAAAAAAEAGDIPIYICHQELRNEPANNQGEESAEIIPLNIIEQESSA
Description: as §1

[5] = molecular target: T5, chimeric CGRP receptor: CRLR chimera #1 (L24 to Q33) + RAMP1 wt (human/rat chimera; human, UniProt Q16602 1-461; O60894 27-148); experiment: FACS on transfected 293-6E cells
T5 construct: also called CRLR L24-Q33+RAMP wt
Description: Cells were harvested after 72 hr, washed with PBS+0.5% BSA, and counted. Each transfected cell line was resuspended at a dilution of 5×10⁵ cells per 100 μl PBS/BSA. 100 μl of cell suspension was aliquot per well in a 96-well round-bottom plate (Falcon). The cells were pelleted at 1200 rpm for 5 min. […] Cells were incubated on ice for 1 hr. and then washed twice with PBS/BSA. […] Cells were incubated on ice in the dark for 1 hr. and then washed twice with PBS/BSA. Cells were resuspended in 200 μl PBS/BSA and analyzed using a FACS Calibur.

[6] = molecular target: T2, human adrenomedullin receptor 2 (hCRLR …); experiment: cell-based or functional assay
[7] = molecular target: T1, human adrenomedullin receptor 1 (hCRLR …); experiment: cell-based or functional assay
[8] = molecular target: T4, human amylin AMY1 receptor (hCTR + …); experiment: cell-based or functional assay
[9] = molecular target: T6, cynomolgus CGRP receptor (cynoCRLR + cynoRAMP1) (cynomolgus monkey); experiment: cell-based or functional assay
T6 chain 1: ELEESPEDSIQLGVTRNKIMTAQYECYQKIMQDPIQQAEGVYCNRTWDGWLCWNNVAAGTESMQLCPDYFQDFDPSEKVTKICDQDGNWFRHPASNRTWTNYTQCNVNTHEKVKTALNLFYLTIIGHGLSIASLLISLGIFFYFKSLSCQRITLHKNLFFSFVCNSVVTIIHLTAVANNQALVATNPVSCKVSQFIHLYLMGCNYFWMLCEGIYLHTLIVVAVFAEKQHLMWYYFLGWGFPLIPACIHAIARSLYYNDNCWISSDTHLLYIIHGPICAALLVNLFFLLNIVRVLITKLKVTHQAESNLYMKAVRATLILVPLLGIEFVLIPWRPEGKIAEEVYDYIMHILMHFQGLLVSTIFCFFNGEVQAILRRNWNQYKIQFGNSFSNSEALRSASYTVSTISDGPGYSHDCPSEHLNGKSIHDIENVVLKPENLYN
T6 chain 2: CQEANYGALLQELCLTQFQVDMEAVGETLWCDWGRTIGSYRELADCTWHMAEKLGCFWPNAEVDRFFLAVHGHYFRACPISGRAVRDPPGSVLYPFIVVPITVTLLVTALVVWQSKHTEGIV

B1: 32H7 (antibody, human IgG2, kappa, V domains shown)
VH: QVQLVESGGGVVQPGRSLRLSCAASGFTFSSYGMHWVRQAPGKGLEWVAVIWYDGSNKYYADSVKGRFIISRDKSKNTLYLQMNSLRAEDTAVYYCARAGGIAAAGLYYYYGMDVWGQGTTVTVSS
VL: EIVLTQSPGTLSLSPGERATLSCRASQSVSSGYLTWYQQKPGQAPRLLIYGASSRATGIPDRFSGSGSGTDFTLTISRLEPEDFAVYYCQQYGNSLCRFGQGTKLEIKR
notes: also called 32H7.1G
B1: no binding [1]; no binding [2]; binds [3]. The binding result [4] was “no binding”, the binding result [5] was “binds” and the “cAMP assay IC50” value [6] was > 1000 nM. The “cAMP assay IC50” value [7] was > 1000 nM, the “cAMP assay IC50” value [8] was > 1000 nM and the “cAMP assay IC50” value [9] was 1.93 nM.
